Article PMC4663749, “Structure of Mycobacterium thermoresistibile GlgE defines novel conformational states that contribute to the catalytic mechanism” (Scientific Reports, 2015)

Target: the molecule itself
Experiment: crystal structure; three structures of GlgE (apo form, maltose co-crystallization, maltose-1P co-crystallization); sitting-drop vapour diffusion at 291 K, ~7 mg/ml protein; one dimer per asymmetric unit

B1: Mycobacterium thermoresistibile GlgE (enzyme, UniProt G7CL00 1-696, looked up)
chain: MAGRIVIDDVQPVVSNGRYPAKAVVGEVVPVAATVWREGHDAVAATLVVRYHGTTYPDLADPPPGVPGADRTAVPIGDVMTPAAPVKPQRLPMSPGHTPDVFHGHFTPDRVGLWTYRVDGWGDPIASWRHNVTAKLDAGQGESELNNDLLVGARLLERAATGVPRELREALLEAAAALRAPGDPFTRAGAALSAEVSDLLAEYPLREFVTRGEQYGVWVDRPEARFSSWYEMFPRSTGGWDAEGRPVHGTFATAAEALPRIARMGFDVVYLPPIHPIGKVHRKGRNNSVTAAPGDVGSPWAIGSDEGGHDAVHPQLGTIEDFDEFVASARDLGLEVALDLALQCAPDHPWAREHPEWFTVLPDGSIAYAENPPKKYQDIYPLNFDNDPAGIYQEVLRVVRFWISHGVNIFRVDNPHTKPPNFWAWLIGQIKNENPDVLFLSEAFTRPARLYGLAKLGFTQSYTYFTWRTSKWELTEFGQEIAAKADIARPNLFVNTPDILHESLQHGGPGMFAIRAVLAATMGPAWGVYSGYELFENQPVRPGSEEYLNSEKYELRPRDFESALARGESLEPFLTRLNEIRRLHPALRELRTIRFHHVDNDALLAYSKFDPGTGDTVLVVVTLNPFGAEEATLWLDMPELGMEPYDRFWVRDEITGEEYQWGQANYVRLDPAKAVAHVLNMPLIPADKRLQLLRRE
notes: GlgE (alpha-1,4-glucan:maltose-1-phosphate maltosyltransferase) of Mycobacterium thermoresistibile DSM 44167; glgE gene amplified from chromosomal DNA with a forward primer that begins at the GTG start codon and a reverse primer that ends at the stop codon; The construct with the cleavable N-terminal SUMO tag gave all crystals; also called maltosyl transferase; source: E. coli BL21(DE3), purified …
stoichiometry N: 2
